According to the supplement of paper PMC9170038:

System: MS2 coat protein
Assay: apparent KD of MS2 coat protein; higher = weaker reporter binding
Details: Eterna round: R107
Procedure, shortened: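 SNAP-549-labelled MS2 coat protein was titrated onto designed RNA switches that had been transcribed on-chip from Illumina sequencing clusters. Amounts doubled from 0.7 or 1.5 nM to 3 µM in 100 mM Tris-HCl pH 7.5, 80 mM KCl, 4 mM MgCl2, with constant ligand or without. Apparent KD is the median per design of normalised cluster binding-curve fits.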

[1] = input ligand: theophylline 20 uM
[2] = input ligand: theophylline 2 mM
[3] = input ligand: tryptophan 2.4 mM

Row | Sequence | apparent KD of MS2 coat protein (input ligand: arginine 13.2 mM) | apparent KD of MS2 coat protein (input ligand: none) | apparent KD of MS2 coat protein [1] | apparent KD of MS2 coat protein [2] | apparent KD of MS2 coat protein [3]
1 | GCGCUCGACAGAAGGAGCGGCGACGUCGGUGUCAGGAGGCACAUGAGGAUCACCCAUGUCAGCCAGGUAGGUCGCUGUCGAUCGC [Arquce] | 22.8 nM | 37.3 nM | 41.9 nM | 40.1 nM | 36.8 nM
2 | GCGGAAUAAUCGGCCGCCACUAUGAGACAGGAAACUGUCACAUGAGGAUCACCCAUGUAUCCUCAUAGGACCGGGAUUAAAACGC [Melting point difference] | 76.8 nM |  | 109 nM | 100 nM | 
3 | GCGGAAUAAUCGGCCGCCACUAUGAUAUAGGAAACUAUAACAUGAGGAUCACCCAUGUAUCCUCAUAGGACCGGGAUUAAAACGC [TrypB - CS] | 39.7 nM |  | 121 nM | 101 nM | 
4 | GCGGACAUGAGGAUCACCCAUGUAAAUCCUCGAGGACCGGUACGGCCGCCACUCGAACGAGUGGCGCGCGCGCGCGCGCGCGCGC [aAa] | 25.3 nM | 40.5 nM | 119 nM | 78.9 nM | 45.2 nM
5 | GCUAGGUCUACGGCCGCCACUAGACGUGGGUUAAACAUGAGGAUCACCCAUGUGCUACAGGCGCAUAGGACCGGGUAGACCUAGC [SSTB NP+V+V2 #9 +-Same Structure] | 86.5 nM | 494 nM | 586 nM | 696 nM | 63.7 nM
6 | GCUAGUGGCAGAAGGAGCGAGGCCCGCGCACAUAACAUGAGGAUCACCCAUGUGGCGAGACCUCAGGUAGGUCGCUGCCACUAGC [EAB NP+V2 #1] | 12 nM | 11.4 nM | 25.8 nM | 14.2 nM | 12.4 nM
7 | GCUAUGGCUGGAAGGAGCGUGAAUUUCAGCGAACAUGAGGAUCACCCAUGUAAGGAUAUGGCACAGGUAGGUCGCUAGCCAUAGC [#19 Same State - Arginine B] | 13.6 nM | 14.3 nM | 21.2 nM | 15.1 nM | 13.4 nM
8 | GCUGCCAUACGAAGGAGCGCUGCUGCGAUGUGGCGAACAUGAGGAUCACCCAUGUGGCAGCGGCAGGUAGGUCGCGUAUGGCAGC [#02 Exclusion - Arginine B] | 45.2 nM | 166 nM | 330 nM | 297 nM | 206 nM
9 | GCUGUGAAGUCGGCCGCCACUGGUUAGUUUAACCUCAUGUAACAUGAGGAUCACCCAUGUAAUGUCAGGACCGGGACAACAGCAA [JR_ExcTryptoB_Sub016] | 131 nM | 145 nM | 236 nM | 289 nM | 357 nM
10 | GCUGUGAAGUCGGCCGCCACUGGUUAGUUUUACCUCAUGUAACAUGAGGAUCACCCAUGUAAUUUCAGGACCGGGACAACAGCAA [JR_ExcTryptoB_Sub017] | 135 nM |  | 588 nM | 853 nM | 
11 | GCUUGCUUGUAAGGUUCUGUCCGGCGUCGUCGAGGACCGGUACGGCCGCCACUCGCGCGUUUACAUGAGGAUCACCCAUGUCAUG [theeternabot_exclusion_MS2_Trp_A_49] | 34.3 nM | 40.6 nM | 38.7 nM | 35 nM | 47.5 nM
12 | GGAAACCAAAGCGAUACCAGCGUACAUGAAAAGAGCGAAAACAUGAGGAUCACCCAUGUACGCCCUUGGCAGCGCAAAACCAAGG | 21.4 nM | 44.3 nM | 50.8 nM | 103 nM | 33.3 nM
13 | GGACAUGCAGGAAGGAGCGACACAGCAGAAACUGCAAAUCCUCCACACGAGGAUCACCCGUGUCAGGUAGGUCGCCUGCAUGUCG [ArgXB 14 #Zipper #MS2Left #StaticStem #Blueprint] | 76.7 nM | 89.5 nM | 99.1 nM | 126 nM | 80.2 nM
14 | GGACUAACCAGAAGGAGCGACACGCAGAAACUGCAAAUUCCUCCACACGAGGAUCACCCGUGUCAGGUAGGUCGCUGGUUAGUCG | 27.8 nM | 24 nM | 31.1 nM | 28.4 nM | 22.2 nM
15 | GGACUAACCAGAAGGAGCGGCACGCAGAAACUGCAAAUUCCUCCACACGAGGAUCACCCGUGUCAGGUAGGUCGCUGGUUAGUCG | 33.6 nM | 21.5 nM | 30.6 nM | 27.6 nM | 23.1 nM
16 | GGACUCGUCACGGCCGCCACUGCGGUGGUGUGACAUGAGGAUCACCCAUGUUGUCAUGCGGCCCUUAGGACCGGGUGUCGCGUCC [#1 Exclusion - Tryptophan B Attempt #25 (HarryS)] | 49.7 nM |  | 100 nM | 93.8 nM | 
17 | GGAUAGGACACGGCCGCCACUACCUAGGAUACUAGCAACAUUUGGGUGCACGAGGAUCACCCGUGUAGGACCGGGUGUCCUAUCG | 202 nM | 72.5 nM | 115 nM | 102 nM | 291 nM
